Results published in patent US20210008201A1, “ANTIBODIES FOR EPIDERMAL GROWTH FACTOR RECEPTOR 3 (HER3)” (NOVARTIS AG, priority 2011, published 2021).
Positions count from the first letter of the chain named.

B1: MOR09824: anti-HER3 human antibody, IgG1/kappa; VH SEQ ID NO: 33, VL SEQ ID NO: 32 (antibody, V domains shown)
VH: QVQLVESGGGLVQPGGSLRLSCAASGFTFSSYAMSWVRQAPGKGLEWVSVISAWGHVKYYADSVKGRFTISRDNSKNTLYLQMNSLRAEDTAVYYCARWGDEGFDIWGQGTLVTVSS
VL: DIQMTQSPSSLSASVGDRVTITCRASQGISNWLAWYQQKPGKAPKLLIYGASSLQSGVPSRFSGSGSGTDFTLTISSLQPEDFAVYYCQQYSSFPTTFGQGTKVEIK
B2: MOR10702: anti-HER3 human antibody, IgG1/kappa; VH SEQ ID NO: 123, VL SEQ ID NO: 122 (antibody, V domains shown)
VH: B1 VH with Q1E, V5L
VL: B1 VL with V85T
B3: MOR09974: anti-HER3 human antibody, IgG1/kappa; VH SEQ ID NO: 69, VL SEQ ID NO: 68 (antibody, V domains shown)
VH: B1 VH with S52N, A53P, W54S, H56N, V57F, K58T, Y59N
VL: B1 VL
B4: MOR12610: anti-HER3 human antibody, IgG1/kappa; VH SEQ ID NO: 375, VL SEQ ID NO: 374 (antibody, V domains shown)
VH: QVQLVESGGGLVQPGGSLRLSCAASGFTFSSYAMSWVRQAPGKGLEWVSGTGPYGGTYYPDSVKGRFTISRDNSKNTLYLQMNSLRAEDTAVYYCARWGDEGFDIWGQGTLVTVSS
VL: B1 VL
B5: MOR10701: anti-HER3 human antibody, IgG1/kappa; VH SEQ ID NO: 105, VL SEQ ID NO: 104 (antibody, V domains shown)
VH: B1 VH with Q1E, V5L, I51T, S52G, W54V, H56R, V57S, K58T, A61P
VL: B1 VL with V85T
B6: MOR12609: anti-HER3 human antibody, IgG1/kappa; VH SEQ ID NO: 357, VL SEQ ID NO: 356 (antibody, V domains shown)
VH: B1 VH with S52N, A53G, W54L, H56Y, V57T, K58T, Y59F
VL: B1 VL

Tests used:
[1] = system: HER3 phosphorylation in MCF7 cells; assay: Phospho-HER3 in vitro cell assay, neuregulin stimulated MCF7 cells; format: cell-based, human; details: both ligand-dependent and ligand-independent manner; summary of cell signaling assays
Experimental: MCF-7 cells were routinely maintained in DMEM/F12, 15 mM HEPES, L-glutamine, 10% FCS and SK-Br-3 in McCoy's 5a, 10% FCS, 1.5 mM L-glutamine. Sub-confluent MCF7 or SK-Br-3 cells grown in complete media were harvested with accutase (PAA Laboratories) and resuspended in the appropriate growth media at a final concentration of […]. 100 μL of cell suspension was then added to each well of a 96-well flat bottomed plate (Nunc) to give a final density of 5×10^4 cells/well. MCF7 cells were allowed to attach for approximately 3 hours before the media was exchanged for starvation media containing 0.5% FBS. All plates were then incubated overnight at 37° C. prior to treatment with the appropriate concentration of HER3 antibodies (diluted in the appropriate media) for 80 minutes at 37° C. MCF7 cells were treated with 50 ng/mL neuregulin 1-β1 EGF domain (R&D Systems) for the final 20 minutes to stimulate HER3 phosphorylation. All media was gently aspirated and the cells washed with ice-cold PBS containing 1 mM CaCl2) and 0.5 mM MgCl2 (Gibco). The cells were lysed by adding 50 μL ice-cold lysis buffer (20 mM Tris (pH8.0)/137 mM NaCl/10% Glycerol/2 mM EDTA/1% NP-40/1 mM sodium orthovanadate/, Aprotinin (10 μg/mL)/Leupeptin (10 μg/mL)) and incubated on ice with shaking for 30 minutes. Lysates were then collected and spun at 1800 g for 15 minutes at 4° C. to remove cell debris. 20 μL of lysate was added to a pre-prepared capture plate.
HER3 was captured from the lysate by incubating the plate at room temperature for one hour with shaking before the lysate was aspirated and the wells washed with 1× Tris buffer (Mesoscale Discovery)/0.1% Tween-20. Phosphorylated HER3 was detected using 0.75 μg/mL biotinylated anti-phosphotyrosine antibody (R&D Systems) prepared in 1% BSA/1× Tris/0.1% Tween-20 by incubating with shaking at room temperature for 1 hour. The wells were washed four times with 1× Tris/0.1% Tween-20 and biotinylated proteins were detected by incubating with S-Tag labelled Streptavidin (Mesoscale Discovery) diluted in 1% BSA/1× Tris/0.1% Tween-20 for one hour at room temperature. Each well was aspirated and washed four times with 1× Tris/0.1% Tween-20 before adding 20 μL of Read buffer T with surfactant (Mesoscale Discovery) and the signal quantified using a Mesoscale Sector Imager. Antibodies MOR06391 or MOR03207 were included in signalling experiments as isotype controls.

BxPC3 tumors = assay: In vivo BxPC3 efficacy studies; set-up: species or system female athymic nu/nu Balb/C mice; details: BxPC3 tumor growth model
Experimental: BxPC3 cells were cultured in RPMI-1640 medium containing 10% heat-inactivated fetal bovine serum without antibiotics until the time of implantation.
Female athymic nu/nu Balb/C mice (Harlan Laboratories) were implanted subcutaneously with 10×10^6 cells in a mixture of 50% phosphate buffered saline with 50% matrigel. The total injection volume containing cells in suspension was 200 μL. Once tumors had reached approximately 200 mm^3 in size, animals were enrolled in the efficacy study. In general, a total of 10 animals per group were enrolled in studies.
Animals were dosed intravenously via lateral tail vein injection. An initial loading dose of 40 mg/kg was given for the first dose. After the initial dose, animals were on a 20 mg/kg, every other day schedule for the duration of the study (25 days under treatment). Tumor volume and T/C values were calculated as previously detailed.

BT-474 xenografts = assay: In vivo BT-474 efficacy studies; set-up: species or system female athymic nu/nu Balb/C mice; details: antibody 20 mg/kg in combination with sub-optimal trastuzumab 1 mg/kg
Experimental: BT-474 cells were cultured in DMEM containing 10% heat-inactivated fetal bovine serum without antibiotics until the time of implantation.
One day before cell inoculation, female athymic nu/nu Balb/C mice (Harlan Laboratories) were implanted subcutaneously with a sustained release 17β-estradiol pellet (Innovative Research of America) to maintain serum estrogen levels. One day after 17β-estradiol pellet implantation, 5×10^6 cells were injected orthotopically into the 4th mammary fatpad in a suspension containing 50% phenol red-free matrigel (BD Biosciences) in Hank's balanced salt solution. The total injection volume containing cells in suspension was 200 μL. 20 days following cell implantation animals with a tumor volume of approximately 200 mm^3 were enrolled in the efficacy study. In general, a total of 10 animals per group were enrolled in efficacy studies.
An initial loading dose of 40 mg/kg was given for the first dose. […] For the duration of the studies, tumor volume was measured by calipering twice per week. Percent treatment/control (T/C) values were calculated using the following formula: […]
Body weight was measured twice per week and dose was body weight adjusted. The % change in body weight was calculated as (BWcurrent−BWinitial)/(BWinitial)×100. […]
All data were expressed as mean standard error of the mean (SEM). […]

Molecule	inhibition of cellular HER3 activity [1]	inhibition of ligand driven tumor growth (BxPC3 tumors)	% T/C (BT-474 xenografts) [%]
B1	capable of inhibiting cellular HER3 activity	–	–
B2	capable of inhibiting cellular HER3 activity	–	–
B3	capable of inhibiting cellular HER3 activity	–	–
B4	capable of inhibiting cellular HER3 activity	–	–
B5	capable of inhibiting cellular HER3 activity	very effectively inhibited ligand driven tumor growth	−50
B6	capable of inhibiting cellular HER3 activity	–	–
